Measurements from the Human Domainome abundance scans (Beltran et al. 2025).
± gives the uncertainty stated by the source.

B1: Zinc finger homeobox protein 3, residues 2147 to 2202; numbered along this chain, Q15911 (parent)
chain: RPRTRITDDQLRVLRQYFDINNSPSEEQIKEMADKSGLPQKVIKHWFRNTLFKERQ

Variants of: B1
Assay: abundance fitness (aPCA) (normalised: wild type 0, dead -1); higher = more abundant; growth selection in yeast, the domain comes from the species named
Details: Homo sapiens
RPRTRITDDQRRVLRQYFDINNSPSEEQIKEMADKSGLPQKVIKHWFRNTLFKERQ [L11R] gave an abundance fitness of 0.034 ± 0.063. RPRTRITDDQQRVLRQYFDINNSPSEEQIKEMADKSGLPQKVIKHWFRNTLFKERQ [L11Q] gave an abundance fitness of -0.01 ± 0.09. In the case of RPRTRITDDQPRVLRQYFDINNSPSEEQIKEMADKSGLPQKVIKHWFRNTLFKERQ [L11P], the abundance fitness is reported as -0.962 ± 0.11. RPRTRITDDQERVLRQYFDINNSPSEEQIKEMADKSGLPQKVIKHWFRNTLFKERQ [L11E] showed an abundance fitness of 0.142 ± 0.078. RPRTRITDDQMRVLRQYFDINNSPSEEQIKEMADKSGLPQKVIKHWFRNTLFKERQ [L11M] gave an abundance fitness of -0.04 ± 0.098. Work on RPRTRITDDQARVLRQYFDINNSPSEEQIKEMADKSGLPQKVIKHWFRNTLFKERQ [L11A] yielded an abundance fitness of -0.019 ± 0.066. Variant RPRTRITDWQLRVLRQYFDINNSPSEEQIKEMADKSGLPQKVIKHWFRNTLFKERQ [D9W] has an abundance fitness of -0.171 ± 0.078. RPRTRITDYQLRVLRQYFDINNSPSEEQIKEMADKSGLPQKVIKHWFRNTLFKERQ [D9Y] gave an abundance fitness of -0.148 ± 0.11. For RPRTRITDSQLRVLRQYFDINNSPSEEQIKEMADKSGLPQKVIKHWFRNTLFKERQ [D9S], the abundance fitness was 0.098 ± 0.07. Variant RPRTRITDAQLRVLRQYFDINNSPSEEQIKEMADKSGLPQKVIKHWFRNTLFKERQ [D9A] has an abundance fitness of 0.088 ± 0.078. For RPRTRITDCQLRVLRQYFDINNSPSEEQIKEMADKSGLPQKVIKHWFRNTLFKERQ [D9C], the abundance fitness was 0.158 ± 0.1. Variant RPRTRITDTQLRVLRQYFDINNSPSEEQIKEMADKSGLPQKVIKHWFRNTLFKERQ [D9T] has an abundance fitness of 0.038 ± 0.081. Variant RPRTRITDLQLRVLRQYFDINNSPSEEQIKEMADKSGLPQKVIKHWFRNTLFKERQ [D9L] has an abundance fitness of -0.106 ± 0.072. RPRTRITDQQLRVLRQYFDINNSPSEEQIKEMADKSGLPQKVIKHWFRNTLFKERQ [D9Q] gave an abundance fitness of 0.018 ± 0.11. For RPRTRITDKQLRVLRQYFDINNSPSEEQIKEMADKSGLPQKVIKHWFRNTLFKERQ [D9K], the abundance fitness was 0.046 ± 0.098. In the case of RPRTRITDRQLRVLRQYFDINNSPSEEQIKEMADKSGLPQKVIKHWFRNTLFKERQ [D9R], the abundance fitness is reported as -0.143 ± 0.063. Work on RPRTRITDIQLRVLRQYFDINNSPSEEQIKEMADKSGLPQKVIKHWFRNTLFKERQ [D9I] yielded an abundance fitness of -0.176 ± 0.11. RPRTRITDMQLRVLRQYFDINNSPSEEQIKEMADKSGLPQKVIKHWFRNTLFKERQ [D9M] gave an abundance fitness of -0.082 ± 0.089. RPRTRITDGQLRVLRQYFDINNSPSEEQIKEMADKSGLPQKVIKHWFRNTLFKERQ [D9G] gave an abundance fitness of -0.068 ± 0.062. With RPRTRITDVQLRVLRQYFDINNSPSEEQIKEMADKSGLPQKVIKHWFRNTLFKERQ [D9V] the abundance fitness was -0.172 ± 0.073. Work on RPRTRITDPQLRVLRQYFDINNSPSEEQIKEMADKSGLPQKVIKHWFRNTLFKERQ [D9P] yielded an abundance fitness of -0.074 ± 0.085. In the case of RPRTRITDFQLRVLRQYFDINNSPSEEQIKEMADKSGLPQKVIKHWFRNTLFKERQ [D9F], the abundance fitness is reported as -0.013 ± 0.13. RPRTRYTDDQLRVLRQYFDINNSPSEEQIKEMADKSGLPQKVIKHWFRNTLFKERQ [I6Y] gave an abundance fitness of -0.123 ± 0.11. RPRTRTTDDQLRVLRQYFDINNSPSEEQIKEMADKSGLPQKVIKHWFRNTLFKERQ [I6T] showed an abundance fitness of -0.448 ± 0.11. Work on RPRTRQTDDQLRVLRQYFDINNSPSEEQIKEMADKSGLPQKVIKHWFRNTLFKERQ [I6Q] yielded an abundance fitness of -0.529 ± 0.11. With RPRTRVTDDQLRVLRQYFDINNSPSEEQIKEMADKSGLPQKVIKHWFRNTLFKERQ [I6V] the abundance fitness was -0.084 ± 0.072. In the case of RPRTRSTDDQLRVLRQYFDINNSPSEEQIKEMADKSGLPQKVIKHWFRNTLFKERQ [I6S], the abundance fitness is reported as -0.46 ± 0.098. For RPRTRWTDDQLRVLRQYFDINNSPSEEQIKEMADKSGLPQKVIKHWFRNTLFKERQ [I6W], the abundance fitness was -0.477 ± 0.1. In the case of RPRTRRTDDQLRVLRQYFDINNSPSEEQIKEMADKSGLPQKVIKHWFRNTLFKERQ [I6R], the abundance fitness is reported as -0.727 ± 0.086. With RPRTRPTDDQLRVLRQYFDINNSPSEEQIKEMADKSGLPQKVIKHWFRNTLFKERQ [I6P] the abundance fitness was -0.108 ± 0.12. RPRTRIMDDQLRVLRQYFDINNSPSEEQIKEMADKSGLPQKVIKHWFRNTLFKERQ [T7M] showed an abundance fitness of -0.162 ± 0.094. RPRTRIIDDQLRVLRQYFDINNSPSEEQIKEMADKSGLPQKVIKHWFRNTLFKERQ [T7I] gave an abundance fitness of -0.596 ± 0.13. With RPRTRIVDDQLRVLRQYFDINNSPSEEQIKEMADKSGLPQKVIKHWFRNTLFKERQ [T7V] the abundance fitness was -0.208 ± 0.074. Variant RPRTRILDDQLRVLRQYFDINNSPSEEQIKEMADKSGLPQKVIKHWFRNTLFKERQ [T7L] has an abundance fitness of -0.273 ± 0.077. For RPRTRINDDQLRVLRQYFDINNSPSEEQIKEMADKSGLPQKVIKHWFRNTLFKERQ [T7N], the abundance fitness was -0.204 ± 0.11. Variant RPRTRIFDDQLRVLRQYFDINNSPSEEQIKEMADKSGLPQKVIKHWFRNTLFKERQ [T7F] has an abundance fitness of -0.432 ± 0.17. In the case of RPRTRISDDQLRVLRQYFDINNSPSEEQIKEMADKSGLPQKVIKHWFRNTLFKERQ [T7S], the abundance fitness is reported as 0.054 ± 0.079. RPRTRICDDQLRVLRQYFDINNSPSEEQIKEMADKSGLPQKVIKHWFRNTLFKERQ [T7C] showed an abundance fitness of -0.367 ± 0.11. For RPRTRIRDDQLRVLRQYFDINNSPSEEQIKEMADKSGLPQKVIKHWFRNTLFKERQ [T7R], the abundance fitness was -0.174 ± 0.067. RPRTRIPDDQLRVLRQYFDINNSPSEEQIKEMADKSGLPQKVIKHWFRNTLFKERQ [T7P] gave an abundance fitness of -0.086 ± 0.1. In the case of RPRTRIHDDQLRVLRQYFDINNSPSEEQIKEMADKSGLPQKVIKHWFRNTLFKERQ [T7H], the abundance fitness is reported as -0.336 ± 0.13. RPRTRIQDDQLRVLRQYFDINNSPSEEQIKEMADKSGLPQKVIKHWFRNTLFKERQ [T7Q] gave an abundance fitness of -0.253 ± 0.088. With RPRTRIGDDQLRVLRQYFDINNSPSEEQIKEMADKSGLPQKVIKHWFRNTLFKERQ [T7G] the abundance fitness was -0.2 ± 0.067. Work on RPRTRIADDQLRVLRQYFDINNSPSEEQIKEMADKSGLPQKVIKHWFRNTLFKERQ [T7A] yielded an abundance fitness of -0.024 ± 0.074. With RPRTRIEDDQLRVLRQYFDINNSPSEEQIKEMADKSGLPQKVIKHWFRNTLFKERQ [T7E] the abundance fitness was -0.133 ± 0.081. Work on RPRTRIKDDQLRVLRQYFDINNSPSEEQIKEMADKSGLPQKVIKHWFRNTLFKERQ [T7K] yielded an abundance fitness of -0.336 ± 0.09. Variant RPRTRIYDDQLRVLRQYFDINNSPSEEQIKEMADKSGLPQKVIKHWFRNTLFKERQ [T7Y] has an abundance fitness of -0.388 ± 0.13.
